Assay results published in patent US7279149B2, “Amino acid composition with increased blood brain barrier permeability” (Mayo Foundation for Medical Education and Research, priority 2003, dated 2007).

How the values were obtained:
[1] = target: T1, amyloid plaques in APP, PS1 mouse brain (Homo sapiens, UniProt P05067); details: PS1 mouse brains ex vivo following IV injection (Poduslo 2002); cited from earlier work
T1 construct: host or cells: APP, PS1 mouse brain (earlier studies: Wengenack 2000; Poduslo 2002)

[2] = target: T2, amyloid plaques in APP, PS1 mouse brain sections (Homo sapiens, UniProt P05067); test: Labeling of amyloid plaques in APP, PS1 transgenic mouse brain sections in vitro; assay type: binding
T2 construct: from tissue; host or cells: brain of APP (Tg2576) x PS1 (M146L6.2) double transgenic mice
Description: f. Labeling of Amyloid Plaques in Human AD and APP, PS1 Mouse Brain Sections In Vitro with Diamine- and Gadolinium-Substituted Aβ30 Peptides. HPLC-purified ^125I-Aβ40, ^125I-Aβ30, ^125I-[N-4ab/Q-4ab]Aβ30, ^125I-Gd[N-4ab/Q-4ab]Aβ30, or buffer was incubated with sections of unfixed AD temporal lobe cortex using the same procedure we used previously (Wengenack, T. M., et al., Neuroscience 101:939–944, 2000). Briefly, the 15 μm-sections were incubated for 3 hours at RT with 100 pM radioiodinated peptide or alone in 250 μl of TBS (50 mM Tris HCl, 138 mM sodium chloride, pH 7.0) containing 0.1% BSA, 0.6 mg/ml magnesium chloride, 0.04 mg/ml bacitracin, 0.002 mg/ml chymostatin, and 0.004 mg/ml leupeptin. The sections then underwent immunohistochemistry (IH) for amyloid using an anti-Aβ monoclonal mouse antibody (4G8, 1:1000, Signet Laboratories, Dedham, Mass.). Next, the sections were dipped in an autoradiographic emulsion (Type NTB-3, Kodak, Rochester, N.Y.) for direct comparison of ^125I-labeled amyloid deposits to anti-Aβ IH. The slides were dipped in emulsion, exposed for various durations, and developed according to the instructions. The sections were dehydrated with successive changes of ethanol and xylene and then coverslipped. […]

[3] = target: T3, amyloid plaques in APP, PS1 mice (Homo sapiens, UniProt P05067); details: 200 μg, PS1 mice at 27 weeks of age (Wengenack 2000); cited from earlier work
T3 construct: host or cells: APP, PS1 mouse brain (earlier studies: Wengenack 2000; Poduslo 2002)

[4] = target: T4, amyloid plaques in APP, PS1 transgenic mouse brain (Homo sapiens, UniProt P05067); test: Labeling of amyloid plaques in APP, PS1 transgenic mouse brain in vivo after IV injection; details: 21-month old APP, PS1 mice, 750 μg IV, four hours
T4 construct: from tissue; host or cells: brain of APP (Tg2576) x PS1 (M146L6.2) double transgenic mice
Description: a. Subjects. These evaluations were performed using transgenic mice that express two mutant human proteins associated with familial AD and have been described in detail elsewhere (Holcomb, L., et al., Nature Med. 4:97–100, 1998). Hemizygous transgenic mice (Tg2576) expressing mutant human amyloid precursor protein (APP695) (Hsiao, K., et al., Science 274:99–102, 1996) were mated with a second strain of hemizygous transgenic mice (M146L6.2) expressing mutant human presenilin 1 (PS1) (Holcomb, L., et al., supra, 1998). The animals were genotyped for the expression of both transgenes by a PCR method using a sample of mouse-tail DNA. […]
g. […] Silver grains from sections exposed for 6 days and 2 weeks were quantitated using unbiased, stereological techniques. Sections exposed for 4 or 8 weeks were somewhat overexposed such that over many of the plaques the exposed silver grains had become confluent could not be counted accurately. Silver grains were counted over plaques in three sections from each animal in the retrosplenial cortex and CA1 region of the hippocampus using a 10-μm×10-μm dissector at 400×. The mean background level of exposed silver grains was also determined for each section. The results were expressed as the mean number of silver grains/100 μm^2 minus the background. […]

[5] = test system: amyloid plaques in human AD temporal lobe cortex sections; test: Labeling of amyloid plaques in human AD brain sections in vitro (emulsion autoradiography); assay type: binding
Description: f. Labeling of Amyloid Plaques in Human AD and APP, PS1 Mouse Brain Sections In Vitro with Diamine- and Gadolinium-Substituted Aβ30 Peptides. HPLC-purified ^125I-Aβ40, ^125I-Aβ30, ^125I-[N-4ab/Q-4ab]Aβ30, ^125I-Gd[N-4ab/Q-4ab]Aβ30, or buffer was incubated with sections of unfixed AD temporal lobe cortex using the same procedure we used previously (Wengenack, T. M., et al., Neuroscience 101:939–944, 2000). Briefly, the 15 μm-sections were incubated for 3 hours at RT with 100 pM radioiodinated peptide or alone in 250 μl of TBS (50 mM Tris HCl, 138 mM sodium chloride, pH 7.0) containing 0.1% BSA, 0.6 mg/ml magnesium chloride, 0.04 mg/ml bacitracin, 0.002 mg/ml chymostatin, and 0.004 mg/ml leupeptin. The sections then underwent immunohistochemistry (IH) for amyloid using an anti-Aβ monoclonal mouse antibody (4G8, 1:1000, Signet Laboratories, Dedham, Mass.). Next, the sections were dipped in an autoradiographic emulsion (Type NTB-3, Kodak, Rochester, N.Y.) for direct comparison of ^125I-labeled amyloid deposits to anti-Aβ IH. The slides were dipped in emulsion, exposed for various durations, and developed according to the instructions. The sections were dehydrated with successive changes of ethanol and xylene and then coverslipped.

T1 sequence (P05067 672-711 limits assumed): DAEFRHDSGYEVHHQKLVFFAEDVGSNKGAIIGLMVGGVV
T2 sequence (P05067 672-711 limits assumed): as above
T4 sequence (P05067 672-711 limits assumed): as above
T3 sequence (P05067 672-711 limits assumed): as above

Substance	contrast enhancement of plaques during MRI [1]	labeling of neuritic plaques ([2]; 100 pM, unfixed APP)	duration of exposure to achieve a detectable amount of silver grains ([2]; APP, equal amounts of peptide)	labeling of plaques in vivo, previous study [3]	labeling of plaques in vivo [4]	labeling of neuritic plaques ([5]; 100 pM radioiodinated peptide, 3 hours at RT, unfixed human AD temporal lobe cortex sections)	labeling of small amyloid deposits ([5]; 100 pM radioiodinated peptide, human AD sections)	exposure time required to detect exposed silver grains ([5]; human AD sections, equal amounts of peptide (100 pM)) [days]
Gd-Aβ40: Gd-DTPA substituted Aβ40 of a previous study	not to provide contrast enhancement of plaques							
(PUT-)Gd-Aβ40: polyamine (putrescine)-modified Gd-Aβ40 of a previous study	provide contrast enhancement of plaques							
Aβ40: human amyloid-β peptide Aβ40, radioiodinated; served as a positive control		labeled most of the neuritic plaques	one	did not label plaques	also labeled plaques in vivo	labeled most dense-core, neuritic type plaques	labeled only a few	7
